The target of the data set is CCAN (CENP-C, CENP-LN, CENP-HIKM, CENP-OPQUR, CENP-TWSX) (Homo sapiens, UniProt Q03188;Q8N0S6;Q96H22;Q9H3R5;Q92674;Q9BS16;Q9NSP4;Q9BU64;Q6IPU0;Q7L2Z9;Q71F23;Q13 …). Kind of data set: cryo-EM; mild cross-linking; 3.5 A; SEC on Superose 6 Increase or Agilent Bio SEC-5 1000A; buffer, salt, pH and temperature not given in the material. The following applies: protein: recombinant; copies: 1;1;1;1;1;1;1;1;1;1;1;1;1;1;1;1.

B1: native alpha-satellite 171 bp DNA (dsDNA)
DNA 1: CCGCTTTGAGGCCTTCGTTGGAAACGGGAATATGTTCACATAAAAACTAGACAGAAGCATTCTCAGAAACTTCTATGTGATGTTTGCATTCAACTCATAGAGTTGAACATTCCTTTTCATAGAGCAGTTTTGAAACACTCTTTTTGTAGTATCTGGAATTGGACATTTGGA
DNA 2: TCCAAATGTCCAATTCCAGATACTACAAAAAGAGTGTTTCAAAACTGCTCTATGAAAAGGAATGTTCAACTCTATGAGTTGAATGCAAACATCACATAGAAGTTTCTGAGAATGCTTCTGTCTAGTTTTTATGTGAACATATTCCCGTTTCCAACGAAGGCCTCAAAGCGG
On to B1, for which the binding result was “binds”.
